# T1: human LIV-1 (human, UniProt Q13433 29-755)
# T1 construct: also called hLIV-1; Q13433
# T1 sequence: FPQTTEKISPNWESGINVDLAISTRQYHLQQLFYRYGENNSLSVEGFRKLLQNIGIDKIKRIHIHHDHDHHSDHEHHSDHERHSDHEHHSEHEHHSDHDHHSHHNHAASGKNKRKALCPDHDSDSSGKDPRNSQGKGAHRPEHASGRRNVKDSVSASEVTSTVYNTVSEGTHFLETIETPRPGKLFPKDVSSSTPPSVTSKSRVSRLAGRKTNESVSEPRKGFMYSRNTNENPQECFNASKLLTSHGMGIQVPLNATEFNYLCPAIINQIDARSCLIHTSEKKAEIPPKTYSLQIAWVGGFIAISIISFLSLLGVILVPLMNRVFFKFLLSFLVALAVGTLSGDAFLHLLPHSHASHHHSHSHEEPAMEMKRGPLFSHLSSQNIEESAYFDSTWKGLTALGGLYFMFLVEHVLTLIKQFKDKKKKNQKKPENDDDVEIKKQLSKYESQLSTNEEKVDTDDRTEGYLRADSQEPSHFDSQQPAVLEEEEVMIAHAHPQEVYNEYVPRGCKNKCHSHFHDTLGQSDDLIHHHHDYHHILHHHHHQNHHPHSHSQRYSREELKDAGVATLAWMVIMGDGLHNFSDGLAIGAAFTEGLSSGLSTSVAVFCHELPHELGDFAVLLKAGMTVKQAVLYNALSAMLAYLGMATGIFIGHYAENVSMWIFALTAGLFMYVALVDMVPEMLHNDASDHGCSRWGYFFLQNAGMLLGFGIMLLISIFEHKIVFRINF
# Target: T1, human LIV-1
# Assay: competition flow cytometry, CHO cells expressing human LIV-1, vs 5 nM AF647-labelled BR2-14a
# Experimental: 1×10⁵ CHO cells expressing recombinant human LIV-1 in PBS/BSA were aliquoted into each well of a 96-well v-bottom plates on ice. […] Cells were pelleted and washed 3 times with PBS/BSA. The cells were pelleted and resuspended in 125 μL of PBS/BSA. Fluorescence was analyzed by flow cytometry, using percent of saturated fluorescent signal to determine percent labeled murine LIV-1 mAb bound and to subsequently extrapolate the EC50 by fitting the data to a sigmoidal dose-response curve with variable slope.
Binder,EC50,binding result
"humanized BR2-14a antibody HALA (antibody, V domains shown, also called hLIV-1 HA + hLIV-1 LA) VH: QVQLVQSGAEVKKPGASVKVSCKASGYTFTDYYMHWVRQAPGQGLEWMGWIDPENGDTEYAPTFQGRVTMTRDTSISTAYMELSRLRSDDTAVYYCARHDAHYGTWFAYWGQGTLVTVSS VL: DVVMTQSPLSLPVTLGQPASISCRSSQSIIRNDGNTYLEWFQQRPGQSPRRLIYRVSNRFSGVPDRFSGSGSGTDFTLKISRVEAEDVGVYYCFQGSHVPYTFGGGTKVEIKR",,no binding (tested: 0.038 nM to 600 nM tested)
"humanized BR2-14a antibody HALF (antibody, V domains shown, also called hLIV-1 HA + hLIV-1 LF) VH: QVQLVQSGAEVKKPGASVKVSCKASGYTFTDYYMHWVRQAPGQGLEWMGWIDPENGDTEYAPTFQGRVTMTRDTSISTAYMELSRLRSDDTAVYYCARHDAHYGTWFAYWGQGTLVTVSS VL: DVVMTQSPLSLPVTLGQPASISCRSSQSIIRNDGNTYLEWYLQKPGQSPKLLIYRVSNRFSGVPDRFSGSGSGTDFTLKISRVEAEDVGVYYCFQGSHVPYTFGGGTKVEIKR",8.8 µg/mL,
"humanized BR2-14a antibody HBLD (antibody, V domains shown, also called hLIV-1 HB + hLIV-1 LD) VH: QVQLVQSGAEVKKPGASVKVSCKASGYTIEDYYMHWVRQAPGQGLEWMGWIDPENGDTEYAPTFQGRVTMTRDTSINTAYMELSRLRSDDTAVYYCARHDAHYGTWFAYWGQGTLVTVSS VL: DVVMTQSPLSLPVTLGQPASISCRSSQSIIRNDGNTYLEWFQQRPGQSPKRLIYRVSNRFSGVPDRFSGSGSGTDFTLKISRVEAEDVGVYYCFQGSHVPYTFGGGTKVEIKR",17.4 µg/mL,
"humanized BR2-14a antibody HBLF (antibody, V domains shown, also called hLIV-1 HB + hLIV-1 LF) VH: QVQLVQSGAEVKKPGASVKVSCKASGYTIEDYYMHWVRQAPGQGLEWMGWIDPENGDTEYAPTFQGRVTMTRDTSINTAYMELSRLRSDDTAVYYCARHDAHYGTWFAYWGQGTLVTVSS VL: DVVMTQSPLSLPVTLGQPASISCRSSQSIIRNDGNTYLEWYLQKPGQSPKLLIYRVSNRFSGVPDRFSGSGSGTDFTLKISRVEAEDVGVYYCFQGSHVPYTFGGGTKVEIKR",0.7 µg/mL,
"humanized BR2-14a antibody HBLA (antibody, V domains shown, also called hLIV-1 HB + hLIV-1 LA) VH: QVQLVQSGAEVKKPGASVKVSCKASGYTIEDYYMHWVRQAPGQGLEWMGWIDPENGDTEYAPTFQGRVTMTRDTSINTAYMELSRLRSDDTAVYYCARHDAHYGTWFAYWGQGTLVTVSS VL: DVVMTQSPLSLPVTLGQPASISCRSSQSIIRNDGNTYLEWFQQRPGQSPRRLIYRVSNRFSGVPDRFSGSGSGTDFTLKISRVEAEDVGVYYCFQGSHVPYTFGGGTKVEIKR",19.9 µg/mL,
"humanized BR2-14a antibody HBLC (antibody, V domains shown, also called hLIV-1 HB + hLIV-1 LC) VH: QVQLVQSGAEVKKPGASVKVSCKASGYTIEDYYMHWVRQAPGQGLEWMGWIDPENGDTEYAPTFQGRVTMTRDTSINTAYMELSRLRSDDTAVYYCARHDAHYGTWFAYWGQGTLVTVSS VL: DVVMTQSPLSLPVTLGQPASISCRSSQSIIRNDGNTYLEWFLQRPGQSPRRLIYRVSNRFSGVPDRFSGSGSGTDFTLKISRVEAEDVGVYYCFQGSHVPYTFGGGTKVEIKR",44 µg/mL,
"humanized BR2-14a antibody HALE (antibody, V domains shown, also called hLIV-1 HA + hLIV-1 LE) VH: QVQLVQSGAEVKKPGASVKVSCKASGYTFTDYYMHWVRQAPGQGLEWMGWIDPENGDTEYAPTFQGRVTMTRDTSISTAYMELSRLRSDDTAVYYCARHDAHYGTWFAYWGQGTLVTVSS VL: DVVMTQSPLSLPVTLGQPASISCRSSQSIIRNDGNTYLEWFQQRPGQSPRLLIYRVSNRFSGVPDRFSGSGSGTDFTLKISRVEAEDVGVYYCFQGSHVPYTFGGGTKVEIKR",,no binding (tested: 0.038 nM to 600 nM tested)
"humanized BR2-14a antibody HALC (antibody, V domains shown, also called hLIV-1 HA + hLIV-1 LC) VH: QVQLVQSGAEVKKPGASVKVSCKASGYTFTDYYMHWVRQAPGQGLEWMGWIDPENGDTEYAPTFQGRVTMTRDTSISTAYMELSRLRSDDTAVYYCARHDAHYGTWFAYWGQGTLVTVSS VL: DVVMTQSPLSLPVTLGQPASISCRSSQSIIRNDGNTYLEWFLQRPGQSPRRLIYRVSNRFSGVPDRFSGSGSGTDFTLKISRVEAEDVGVYYCFQGSHVPYTFGGGTKVEIKR",25.5 µg/mL,
"humanized BR2-14a antibody HALB (antibody, V domains shown, also called hLIV-1 HA + hLIV-1 LB) VH: QVQLVQSGAEVKKPGASVKVSCKASGYTFTDYYMHWVRQAPGQGLEWMGWIDPENGDTEYAPTFQGRVTMTRDTSISTAYMELSRLRSDDTAVYYCARHDAHYGTWFAYWGQGTLVTVSS VL: DVVMTQSPLSLPVTLGQPASISCRSSQSIIRNDGNTYLEWYQQRPGQSPRRLIYRVSNRFSGVPDRFSGSGSGTDFTLKISRVEAEDVGVYYCFQGSHVPYTFGGGTKVEIKR",37.8 µg/mL,
"humanized BR2-14a antibody HALD (antibody, V domains shown, also called hLIV-1 HA + hLIV-1 LD) VH: QVQLVQSGAEVKKPGASVKVSCKASGYTFTDYYMHWVRQAPGQGLEWMGWIDPENGDTEYAPTFQGRVTMTRDTSISTAYMELSRLRSDDTAVYYCARHDAHYGTWFAYWGQGTLVTVSS VL: DVVMTQSPLSLPVTLGQPASISCRSSQSIIRNDGNTYLEWFQQRPGQSPKRLIYRVSNRFSGVPDRFSGSGSGTDFTLKISRVEAEDVGVYYCFQGSHVPYTFGGGTKVEIKR",4.9 µg/mL,

# The next lines start with results.
EC50,Binder,binding result
12.5 µg/mL,"humanized BR2-14a antibody HELA (antibody, V domains shown, also called hLIV-1 HE + hLIV-1 LA) VH: QVQLVQSGAEVKKPGASVKVSCKASGFNIEDYYMHWVRQAPGQGLEWIGWIDPENGDTEYAPTFQGKATMTADTSINTAYMELSRLRSDDTAVYYCNVHDAHYGTWFAYWGQGTLVTVSS VL: DVVMTQSPLSLPVTLGQPASISCRSSQSIIRNDGNTYLEWFQQRPGQSPRRLIYRVSNRFSGVPDRFSGSGSGTDFTLKISRVEAEDVGVYYCFQGSHVPYTFGGGTKVEIKR",
1.4 µg/mL,"humanized BR2-14a antibody HDLF (antibody, V domains shown, also called hLIV-1 HD + hLIV-1 LF) VH: QVQLVQSGAEVKKPGASVKVSCKASGFTFTDYYMHWVRQAPGQGLEWMGWIDPENGDTEYAPTFQGRVTMTRDTSISTAYMELSRLRSDDTAVYYCNVHDAHYGTWFAYWGQGTLVTVSS VL: DVVMTQSPLSLPVTLGQPASISCRSSQSIIRNDGNTYLEWYLQKPGQSPKLLIYRVSNRFSGVPDRFSGSGSGTDFTLKISRVEAEDVGVYYCFQGSHVPYTFGGGTKVEIKR",
173 µg/mL,"humanized BR2-14a antibody HELB (antibody, V domains shown, also called hLIV-1 HE + hLIV-1 LB) VH: QVQLVQSGAEVKKPGASVKVSCKASGFNIEDYYMHWVRQAPGQGLEWIGWIDPENGDTEYAPTFQGKATMTADTSINTAYMELSRLRSDDTAVYYCNVHDAHYGTWFAYWGQGTLVTVSS VL: DVVMTQSPLSLPVTLGQPASISCRSSQSIIRNDGNTYLEWYQQRPGQSPRRLIYRVSNRFSGVPDRFSGSGSGTDFTLKISRVEAEDVGVYYCFQGSHVPYTFGGGTKVEIKR",
66.6 µg/mL,"humanized BR2-14a antibody HCLD (antibody, V domains shown, also called hLIV-1 HC + hLIV-1 LD) VH: QVQLVQSGAEVKKPGASVKVSCKASGYTFTDYYMHWVRQAPGQGLEWMGWIDPENGDTEYAPTFQGKATMTADTSISTAYMELSRLRSDDTAVYYCARHDAHYGTWFAYWGQGTLVTVSS VL: DVVMTQSPLSLPVTLGQPASISCRSSQSIIRNDGNTYLEWFQQRPGQSPKRLIYRVSNRFSGVPDRFSGSGSGTDFTLKISRVEAEDVGVYYCFQGSHVPYTFGGGTKVEIKR",
1.8 µg/mL,"humanized BR2-14a antibody HCLB (antibody, V domains shown, also called hLIV-1 HC + hLIV-1 LB) VH: QVQLVQSGAEVKKPGASVKVSCKASGYTFTDYYMHWVRQAPGQGLEWMGWIDPENGDTEYAPTFQGKATMTADTSISTAYMELSRLRSDDTAVYYCARHDAHYGTWFAYWGQGTLVTVSS VL: DVVMTQSPLSLPVTLGQPASISCRSSQSIIRNDGNTYLEWYQQRPGQSPRRLIYRVSNRFSGVPDRFSGSGSGTDFTLKISRVEAEDVGVYYCFQGSHVPYTFGGGTKVEIKR",
1.3 µg/mL,"humanized BR2-14a antibody HCLF (antibody, V domains shown, also called hLIV-1 HC + hLIV-1 LF) VH: QVQLVQSGAEVKKPGASVKVSCKASGYTFTDYYMHWVRQAPGQGLEWMGWIDPENGDTEYAPTFQGKATMTADTSISTAYMELSRLRSDDTAVYYCARHDAHYGTWFAYWGQGTLVTVSS VL: DVVMTQSPLSLPVTLGQPASISCRSSQSIIRNDGNTYLEWYLQKPGQSPKLLIYRVSNRFSGVPDRFSGSGSGTDFTLKISRVEAEDVGVYYCFQGSHVPYTFGGGTKVEIKR",
67.9 µg/mL,"humanized BR2-14a antibody HDLD (antibody, V domains shown, also called hLIV-1 HD + hLIV-1 LD) VH: QVQLVQSGAEVKKPGASVKVSCKASGFTFTDYYMHWVRQAPGQGLEWMGWIDPENGDTEYAPTFQGRVTMTRDTSISTAYMELSRLRSDDTAVYYCNVHDAHYGTWFAYWGQGTLVTVSS VL: DVVMTQSPLSLPVTLGQPASISCRSSQSIIRNDGNTYLEWFQQRPGQSPKRLIYRVSNRFSGVPDRFSGSGSGTDFTLKISRVEAEDVGVYYCFQGSHVPYTFGGGTKVEIKR",
2.3 µg/mL,"humanized BR2-14a antibody HDLB (antibody, V domains shown, also called hLIV-1 HD + hLIV-1 LB) VH: QVQLVQSGAEVKKPGASVKVSCKASGFTFTDYYMHWVRQAPGQGLEWMGWIDPENGDTEYAPTFQGRVTMTRDTSISTAYMELSRLRSDDTAVYYCNVHDAHYGTWFAYWGQGTLVTVSS VL: DVVMTQSPLSLPVTLGQPASISCRSSQSIIRNDGNTYLEWYQQRPGQSPRRLIYRVSNRFSGVPDRFSGSGSGTDFTLKISRVEAEDVGVYYCFQGSHVPYTFGGGTKVEIKR",
